The data set concerns the molecule itself. The data set can be described thus: single-molecule photobleaching analysis.

One may read the stoichiometry N as a count of units in the complex or per binding partner.

B1: Cyanine-5 labeled N43S Fluc-Bpe (natural protein, Bordetella pertussis)
chain: MLTYAPLNFIAIGIGATLGAWLRWVLGLKLNGAGWPWGTLTASLVGGYLIGVMVALIASHPEWPAWIRLAAVTGFLGGLTTFSTFSAETVDMLSRGVYATAAAYAGASLAGSLAMTGLGLATVRLLLC
modifications: Cy5 (Cyanine5-maleimide) on the cysteine of R128C
Take B1: the “stoichiometry N” value was determined as 2.
